According to paper doi:10.1101/2023.08.03.551877 (bioRxiv, 2023):

B1: Ume1 (natural protein)
chain: MSTLDIAEDNKIKNEEFKIWKKSIPSLYQHISSLKPIFGSGVDESPSTLRSIVFTNDSSCNKSKGVLSVPLLYSQGSEIFEVDCIVPLGLHYKKPESISEPLVQPDYTMESQKVEQTVLIPKWEFKGETIAKMIYVDNSEINVKVIALSTNGSLAWFREGVKSPVYTMMEPSTSLSSASSGNQNKPCVDFAISNDSKTLTVTKEKHLDNENATIKLIDNSGKIGEVLRTIPVPGIKNIQEIKFLNNQIFATCSDDGIIRFWGNEIGKKPLWILNDSLDGKTTCFAASPFVDTLFMTGTSGGALKVWDIRAVIALGDADAELNINQGHNKVNELFKVHHFYSEQVSKIEFSSISPMEVVTIGGLGNVYHWNFEPVFAIYNEIHEDFQGIISDELEAESMAFYHTEGCRREIGENNKVNTVAYHKYIEDLVATVDSDGLLTVYKPFTGKVLDGSREVGAAKS
B2: Rpd3 (enzyme)
chain: MVYEATPFDPITVKPSDKRRVAYFYDADVGNYAYGAGHPMKPHRIRMAHSLIMNYGLYKKMEIYRAKPATKQEMCQFHTDEYIDFLSRVTPDNLEMFKRESVKFNVGDDCPVFDGLYEYCSISGGGSMEGAARLNRGKCDVAVNYAGGLHHAKKSEASGFCYLNDIVLGIIELLRYHPRVLYIDIDVHHGDGVEEAFYTTDRVMTCSFHKYGEFFPGTGELRDIGVGAGKNYAVNVPLRDGIDDATYRSVFEPVIKKIMEWYQPSAVVLQCGGDSLSGDRLGCFNLSMEGHANCVNYVKSFGIPMMVVGGGGYTMRNVARTWCFETGLLNNVVLDKDLPYNEYYEYYGPDYKLSVRPSNMFNVNTPEYLDKVMTNIFANLENTKYAPSVQLNHTPRDAEDLGDVEEDSAEAKDTKGGSQYARDLHVEHDNEFY
B3: Rco1 (natural protein)
chain: MDTSKKDTTRSPSHSNSSSPSSSSLSSSSSKEKKRPKRLSSQNVNYDLKRRKIITSEGIERSFKNEHSNLAVEDNIPEEEPKELLEKDSKGNIIKLNEPSTISEDSKVSVTGLPLNKGPSEKIKRESLWNYRKNLGGQSNNSEMTLVPSKRFTQVPKNFQDLNRNDLKTFLTENMTEESNIRSTIGWNGDIINRTRDREPESDRDNKKLSNIRTKIILSTNATYDSKSKLFGQNSIKSTSNASEKIFRDKNNSTIDFENEDFCSACNQSGSFLCCDTCPKSFHFLCLDPPIDPNNLPKGDWHCNECKFKIFINNSMATLKKIESNFIKQNNNVKIFAKLLFNIDSHNPKQFQLPNYIKETFPAVKTGSRGQYSDENDKIPLTDRQLFNTSYGQSITKLDSYNPDTHIDSNSGKFLICYKCNQTRLGSWSHPENSRLIMTCDYCQTPWHLDCVPRASFKNLGSKWKCPLHSPTKVYKKIHHCQEDNSVNYKVWKKQRLINKKNQLYYEPLQKIGYQNNGNIQIIPTTSHTDYDFNQDFKITQIDENSIKYDFFDKIYKSKMVQKRKLFQFQESLIDKLVSNGSQNGNSEDNMVKDIASLIYFQVSNNDKSSNNKSASKSNNLRKLWDLKELTNVVVPNELDSIQFNDFSSDEIKHLLYLKKIIESKPKEELLKFLNIENPENQSE
B4: Eaf3 (natural protein)
chain: MVDLEQEFALGGRCLAFHGPLMYEAKILKIWDPSSKMYTSIPNDKPGGSSQATKEIKPQKLGEDESIPEEIINGKCFFIHYQGWKSSWDEWVGYDRIRAYNEENIAMKKRLANEAKEAKKSLLEQQKKKKLSTSLGGPSNGGKRKGDSRSNASISKSTSQSFLTSSVSGRKSGRSSANSLHPGSSLRSSSDQNGNDDRRRSSSLSPNMLHHIAGYPTPKISLQIPIKLKSVLVDDWEYVTKDKKICRLPADVTVEMVLNKYEHEVSQELESPGSQSQLSEYCAGLKLYFDKCLGNMLLYRLERLQYDELLKKSSKDQKPLVPIRIYGAIHLLRLISVLPELISSTTMDLQSCQLLIKQTEDFLVWLLMHVDEYFNDKDPNRSDDALYVNTSSQYEGVALGM

Legend:
Experiment in all cases: cryo-EM structure
Sin3 = Sin3 (S. cerevisiae, UniProt P22579 1-1536)
Sin3, sequence (P22579 whole entry): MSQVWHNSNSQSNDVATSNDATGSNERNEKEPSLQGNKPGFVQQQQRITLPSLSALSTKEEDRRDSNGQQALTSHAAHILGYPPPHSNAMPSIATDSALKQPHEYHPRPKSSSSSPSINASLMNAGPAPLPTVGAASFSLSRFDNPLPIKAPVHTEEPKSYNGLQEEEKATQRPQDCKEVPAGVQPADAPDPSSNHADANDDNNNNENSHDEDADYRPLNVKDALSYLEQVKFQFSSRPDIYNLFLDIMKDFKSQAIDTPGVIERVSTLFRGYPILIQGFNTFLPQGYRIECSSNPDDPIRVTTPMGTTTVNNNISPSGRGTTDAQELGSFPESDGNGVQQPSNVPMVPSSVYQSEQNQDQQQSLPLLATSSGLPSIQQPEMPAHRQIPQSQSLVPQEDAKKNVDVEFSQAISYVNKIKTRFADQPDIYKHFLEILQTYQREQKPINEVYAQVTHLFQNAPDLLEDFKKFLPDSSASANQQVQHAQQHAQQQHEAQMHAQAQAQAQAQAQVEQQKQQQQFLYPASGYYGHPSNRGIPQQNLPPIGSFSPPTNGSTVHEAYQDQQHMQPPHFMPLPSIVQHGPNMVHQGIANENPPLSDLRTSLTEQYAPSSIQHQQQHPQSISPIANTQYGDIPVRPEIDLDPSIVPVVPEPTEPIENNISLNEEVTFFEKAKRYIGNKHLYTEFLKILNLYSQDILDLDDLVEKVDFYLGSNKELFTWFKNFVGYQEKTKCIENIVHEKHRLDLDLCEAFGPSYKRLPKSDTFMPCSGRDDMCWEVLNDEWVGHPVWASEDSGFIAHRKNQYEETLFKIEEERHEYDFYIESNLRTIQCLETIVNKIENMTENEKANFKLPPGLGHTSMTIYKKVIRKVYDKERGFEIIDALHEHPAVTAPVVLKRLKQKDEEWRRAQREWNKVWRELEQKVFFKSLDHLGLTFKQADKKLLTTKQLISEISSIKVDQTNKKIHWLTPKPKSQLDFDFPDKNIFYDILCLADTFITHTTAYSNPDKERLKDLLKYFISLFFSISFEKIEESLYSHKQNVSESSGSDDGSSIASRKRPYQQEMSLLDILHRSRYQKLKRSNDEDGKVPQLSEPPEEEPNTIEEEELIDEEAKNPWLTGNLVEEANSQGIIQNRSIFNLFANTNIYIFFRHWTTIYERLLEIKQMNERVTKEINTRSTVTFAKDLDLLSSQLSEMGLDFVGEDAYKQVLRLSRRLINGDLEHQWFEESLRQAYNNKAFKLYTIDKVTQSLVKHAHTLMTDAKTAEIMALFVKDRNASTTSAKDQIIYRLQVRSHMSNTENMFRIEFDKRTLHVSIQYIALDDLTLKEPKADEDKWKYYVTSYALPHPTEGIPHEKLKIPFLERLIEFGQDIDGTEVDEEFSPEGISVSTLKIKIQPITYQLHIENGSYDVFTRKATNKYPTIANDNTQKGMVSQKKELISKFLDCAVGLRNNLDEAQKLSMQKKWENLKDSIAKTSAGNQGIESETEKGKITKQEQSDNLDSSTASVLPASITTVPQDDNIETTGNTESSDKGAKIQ

Rco1 = molecular target: B3
cryo-EM structure = molecular target: the molecule itself
Ume1 = molecular target: B1

binding result (Sin3) | binding result (Rco1) | binding result (Ume1) | Binder | binding result (cryo-EM structure)
binds | – | – | B1 | –
binds | binds | – | B2 | –
binds | – | – | B3 | binds
– | binds | binds | B4 | –
